Test results: US20250136711A1 (SHANGHAI BIOTROY BIOTECHNIQUE, published 2025)

Tests used:
SEMG2 (human) = SEMG2 (human) (UniProt Q02383); assay: ELISA; negative control
[1] = molecular target: T1, SEMG1 recombinant protein (semenogelin-1) (human, UniProt P04279 24-462, limits assumed); assay: ELISA; SEMG1 coated, antibody in 3-fold dilution series, goat anti-mouse HRP
T1 construct: also called full-length SEMG1
T1 sequence (looked up): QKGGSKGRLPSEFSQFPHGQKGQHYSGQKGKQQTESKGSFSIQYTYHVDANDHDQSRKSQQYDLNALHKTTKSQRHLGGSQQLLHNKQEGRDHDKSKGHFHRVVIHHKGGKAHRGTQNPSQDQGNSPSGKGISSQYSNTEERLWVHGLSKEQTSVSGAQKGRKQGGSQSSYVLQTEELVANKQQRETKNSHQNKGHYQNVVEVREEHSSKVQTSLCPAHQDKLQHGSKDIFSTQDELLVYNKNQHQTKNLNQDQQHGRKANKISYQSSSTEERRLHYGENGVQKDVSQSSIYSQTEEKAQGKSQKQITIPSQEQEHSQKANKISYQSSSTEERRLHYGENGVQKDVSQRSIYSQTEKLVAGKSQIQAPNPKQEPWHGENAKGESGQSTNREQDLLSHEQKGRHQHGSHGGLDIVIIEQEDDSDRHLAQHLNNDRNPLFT
Method: (§1) In order to identify whether the screened monoclonal antibodies with neutralizing effect can bind to SEMG1 and SEMG2 proteins, we coated SEMG2 protein diluted in carbonate buffer (Solarbio, Beijing, China) to a final concentration of 1 μg/mL on a dedicated ELISA plate (costar, ME, USA), and the binding of 1 μg/mL mouse hybridoma antibody to SEMG2 was initially tested. According to the determination outcome, the binding and binding strength between SEMG1 or SEMG2 and the purified mouse monoclonal antibody were further analyzed by ELISA experiment, and an irrelevant mouse monoclonal antibody was taken as a negative control. Specifically, a special plate for ELISA (costar, ME, USA) was used. First, different concentrations of SEMG1 or SEMG2 recombinant proteins were dissolved in 100 μL of carbonate coating buffer (Solarbio, Beijing, China) to 2 μg/mL to coat the plate, and the negative control was coated with 100 μL of coating buffer without protein. The plates were coated overnight at 4° C. […] After washing with PBST, color developing solution (Sangon, Shanghai, China) was used for color development, 100 μL per well, the plate was placed in an incubator for 5-30 minutes, and adding 50 μL of stop solution (Sangon, Shanghai, China) to stop the reaction, and then the plate was placed in a microplate reader (Thermo Fisher, MA, USA) for chromogenic reading at 450 nm.

[2] = molecular target: T2, S1-26 synthetic polypeptide of SEMG1 (human); assay: ELISA on coated peptide; antibody at 2.5 ug/mL; positive if OD ratio to blank >3
T2 construct: also called SEMG1-26
T2 peptide: KDIFSTQDELLVYNK
Method: ⅓ overlapping peptide sequences were designed, and a peptide library consisting of 45 peptides (GenScript, Nanjing) was synthesized. Peptide matrix was prepared by using a polypeptide-coated 96-well plate (Costar, Corning), and the selected monoclonal antibody was used as the primary antibody for ELISA binding test, and SEMG1 coating was set as a positive control, and BSA coating was set as a control. The ELISA procedure was performed routinely, as described in Example 2 above. For the coated polypeptide well with OD_{experimental group}/OD_{blank group}>3, it was determined as a positive reaction, which was the corresponding antibody-bound polypeptide sequence.

[3] = molecular target: T3, SEMG2 recombinant protein (semenogelin-2) (human, UniProt Q02383 24-582, limits assumed); assay: ELISA; SEMG2 coated, antibody in 3-fold dilution series, goat anti-mouse HRP
T3 construct: also called SMEG2
T3 sequence (looked up): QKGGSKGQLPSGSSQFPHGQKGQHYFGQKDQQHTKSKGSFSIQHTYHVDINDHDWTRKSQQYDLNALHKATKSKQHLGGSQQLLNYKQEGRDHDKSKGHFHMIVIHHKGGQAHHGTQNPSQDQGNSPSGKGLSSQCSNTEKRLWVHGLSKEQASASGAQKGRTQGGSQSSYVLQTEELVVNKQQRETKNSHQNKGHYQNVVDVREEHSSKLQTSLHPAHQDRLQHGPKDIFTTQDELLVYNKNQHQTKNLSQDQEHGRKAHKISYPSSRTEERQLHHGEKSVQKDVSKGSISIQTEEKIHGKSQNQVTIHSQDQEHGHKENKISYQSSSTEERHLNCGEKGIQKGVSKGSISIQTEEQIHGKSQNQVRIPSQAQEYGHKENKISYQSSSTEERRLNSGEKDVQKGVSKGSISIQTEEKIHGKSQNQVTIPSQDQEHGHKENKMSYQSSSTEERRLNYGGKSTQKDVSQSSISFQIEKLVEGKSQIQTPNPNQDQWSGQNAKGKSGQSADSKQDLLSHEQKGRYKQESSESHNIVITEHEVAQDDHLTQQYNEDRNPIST
Method: as §1

| Molecule | EC50 (SEMG2 (human)) | EC50 [1] | binding result [2] | EC50 [3] |
| --- | --- | --- | --- | --- |
| mIgG1 | 4.24 nM | – | – | – |
| 25-E10-F8-B5 (antibody, mouse IgG1, V domains shown, Mouse hybridoma monoclonal antibody; The V regions were re-cloned with murine IgG1 and murine kappa constant regions to verify activity) VH: QVQLQQPGAELVKPGASVKMSCKASGYTFTSYNMHWVKQTPGQGLEWIGAIYPGNGDTSYNQKFKGKATLTADKSSSTAYMQLSSLTSEDSAVYYCASAMDYWGQGTSVTVSS VL: SIVMTQTPLSLPVSLGDQASISCRSSQSLVHSNGNTYLQWYLQKPGQSPKLLIYKVSNRFSGVPDRFSGSGSGTDFTLKISRVEAEDLGVYFCSQSKHVPRTFGGGTKLEIK | – | 1.26 nM | binds | 1.69 nM |
| 33-B5-C1-F5 (antibody, mouse IgG1, V domains shown, Mouse hybridoma monoclonal antibody; The V regions were re-cloned with murine IgG1 and murine kappa constant regions to verify activity) VH: EVQLQESGAELVKPRASVKMSCKASGYTFSSYNMHWIRQTPEQGLEWIGAIYPGTGDTSYNQKFKGKATLTADKSSSTAYMQLSSLTSEDSAVYYCASAMDYWGQGTSVTVSS VL: DVVLTQTPLSLPVSLGDQASISCRSSQSLLHSNGNTYLQWFLQRSGQSPKLLIYKVSNRFYGVPDRFSGSGSGTDFTLKISRVEAEDLGVYFCSQSIDVPRTFGGGTKLEIK | – | 3.67 nM | binds | 2.39 nM |
